T1: human TL1A (human, UniProt O95150 72-251, limits assumed)
T1 construct: also called tumor necrosis factor-like cytokine 1A; TNFSF15
T1 sequence (looked up): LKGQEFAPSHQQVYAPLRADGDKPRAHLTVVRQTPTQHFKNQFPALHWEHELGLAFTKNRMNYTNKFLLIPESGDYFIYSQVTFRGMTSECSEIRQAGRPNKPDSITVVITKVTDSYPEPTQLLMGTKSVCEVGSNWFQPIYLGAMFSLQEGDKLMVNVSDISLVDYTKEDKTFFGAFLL

T2: human TL1A (Fitzgerald #30R-AT070) (human, UniProt O95150 72-251, limits assumed)
T2 construct: Coated on the ELISA plate at 1 ug/mL; also called TNFSF15
T2 sequence (looked up): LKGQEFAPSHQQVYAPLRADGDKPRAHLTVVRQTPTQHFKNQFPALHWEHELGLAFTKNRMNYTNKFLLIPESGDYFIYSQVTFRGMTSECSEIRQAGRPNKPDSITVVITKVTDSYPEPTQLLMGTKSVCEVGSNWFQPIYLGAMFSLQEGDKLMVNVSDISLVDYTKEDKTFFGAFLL


Experiments:
human TL1A = molecular target: T1, human TL1A; test: ELISA titration on plate-coated human TL1A, unpurified culture supernatant
[1] = molecular target: T2, human TL1A (Fitzgerald #30R-AT070); test: ELISA titration, coated human TL1A, culture supernatant

Row | Binder | Kd (human TL1A) | Kd [1]
1 | A221 (antibody, IgG1, V domains shown) VH: QVQLVQSGAEVKKPGASVKVSCKASGFDIQDTYMHWVKQRPGQGLEWMGRIDPASGHTKYDPKFQVRATITRDTSTSTAYLELSSLRSEDTAVYYCARSGGLPDVWGQGTTVTVSS VL: EIVLTQSPGTLSLSPGERATLSCRASSSVSYMYWYQQKPGQAPRPLIYATSNLASGIPDRFSGSGSGTDFTLTISRLEPEDFAVYYCQQWEGNPRTFGGGTKLEIK | 51 pM | –
2 | A52 (antibody, human IgG1, V domains shown, human IgG1/kappa (pFuse vectors), culture supernatant) VH: QVQLVQSGAEVKKPGASVKVSCKASGFDIQDTYMHWVKQRPGQGLEWIGRIDPASGHTKYDPKFQVRATITTDTSTSTAYLELSSLRSEDTAVYYCARSGGLPDVWGQGTTVTVSS VL: EIVLTQSPGTLSASPGERATMSCRASSSVSYMYWYQQKPGQAPRPWIYATSNLASGVPDRFSGSGSGTDFTLTISRLEPEDFAVYYCQQWSGNPRTFGGGTKLEIK | – | 27 pM
3 | A45 (antibody, human IgG1, V domains shown, human IgG1/kappa (pFuse vectors), culture supernatant) VH: QVQLVQSGAEVKKPGASVKVSCKASGFDIQDTYMHWVKQRPGQGLEWIGRIDPASGHTKYDPKFQVRVTITRDTSTSTAYLELSSLRSEDTAVYYCARSGGLPDVWGQGTTVTVSS VL: EIVLTQSPGTLSASPGERATMSCRASSSVSYMYWYQQKPGQAPRPWIYATSNLASGVPDRFSGSGSGTDYTLTISRVEPEDFAVYYCQQWSGNPRTFGGGTKLEIK | – | 85 pM
4 | A47 (antibody, human IgG1, V domains shown, human IgG1/kappa (pFuse vectors), culture supernatant) VH: QVQLVQSGAEVKKPGASVKVSCKASGFDIQDTYMHWVKQRPGQGLEWIGRIDPASGHTKYDPKFQVRVTMTRDTSTSTAYLELSSLRSEDTAVYYCARSGGLPDVWGQGTTVTVSS VL: EIVLTQSPGTLSASPGERATMSCRASSSVSYMYWYQQKPGQAPRPWIYATSNLASGVPDRFSGSGSGTDYTLTISRVEPEDFAVYYCQQWSGNPRTFGGGTKLEIK | – | 82 pM
5 | A48 (antibody, human IgG1, V domains shown, human IgG1/kappa (pFuse vectors), culture supernatant) VH: QVQLVQSGAEVKKPGASVKVSCKASGFDIQDTYMHWVKQRPGQGLEWIGRIDPASGHTKYDPKFQVRATITTDTSTSTAYLELSSLRSEDTAVYYCARSGGLPDVWGQGTTVTVSS VL: EIVLTQSPGTLSASPGERATLSCRASSSVSYMYWYQQKPGQAPRPWIYATSNLASGVPDRFSGSGSGTDYTLTISRVEPEDFAVYYCQQWSGNPRTFGGGTKLEIK | – | 76 pM
6 | A49 (antibody, human IgG1, V domains shown, human IgG1/kappa (pFuse vectors), culture supernatant) VH: QVQLVQSGAEVKKPGASVKVSCKASGFDIQDTYMHWVKQRPGQGLEWIGRIDPASGHTKYDPKFQVRATITTDTSTSTAYLELSSLRSEDTAVYYCARSGGLPDVWGQGTTVTVSS VL: EIVLTQSPGTLSASPGERATMSCRASSSVSYMYWYQQKPGQAPRLLIYATSNLASGVPDRFSGSGSGTDYTLTISRVEPEDFAVYYCQQWSGNPRTFGGGTKLEIK | – | 92 pM
7 | A50 (antibody, human IgG1, V domains shown, human IgG1/kappa (pFuse vectors), culture supernatant) VH: QVQLVQSGAEVKKPGASVKVSCKASGFDIQDTYMHWVKQRPGQGLEWIGRIDPASGHTKYDPKFQVRATITTDTSTSTAYLELSSLRSEDTAVYYCARSGGLPDVWGQGTTVTVSS VL: EIVLTQSPGTLSASPGERATMSCRASSSVSYMYWYQQKPGQAPRPWIYATSNLASGVPDRFSGSGSGTDFTLTISRVEPEDFAVYYCQQWSGNPRTFGGGTKLEIK | – | 19 pM
8 | A54 (antibody, human IgG1, V domains shown, human IgG1/kappa (pFuse vectors), culture supernatant) VH: DVQLVQSGAEVKKPGASVKVSCKASGFDIQDTYMHWVKQRPGQGLEWIGRIDPASGHTKYDPKFQVRATITTDTSTSTAYLELSSLRSEDTAVYYCARSGGLPDVWGQGTTVTVSS VL: EIVLTQSPGTLSASPGERATMSCRASSSVSYMYWYQQKPGQAPRPWIYATSNLASGVPDRFSGSGSGTDYTLTISRVEPEDFAVYYCQQWSGNPRTFGGGTKLEIK | – | 83 pM
9 | A46 (antibody, human IgG1, V domains shown, human IgG1/kappa (pFuse vectors), culture supernatant) VH: QVQLVQSGAEVKKPGASVKVSCKASGFDIQDTYMHWVKQRPGQGLEWIGRIDPASGHTKYDPKFQVRATMTRDTSTSTAYLELSSLRSEDTAVYYCARSGGLPDVWGQGTTVTVSS VL: EIVLTQSPGTLSASPGERATMSCRASSSVSYMYWYQQKPGQAPRPWIYATSNLASGVPDRFSGSGSGTDYTLTISRVEPEDFAVYYCQQWSGNPRTFGGGTKLEIK | – | 63 pM
10 | A53 (antibody, human IgG1, V domains shown, human IgG1/kappa (pFuse vectors), culture supernatant) VH: QVQLVQSGAEVKKPGASVKVSCKASGFDIQDTYMHWVKQRPGQGLEWIGRIDPASGHTKYDPKFQVRVTMTTDTSTSTAYLELSSLRSEDTAVYYCARSGGLPDVWGQGTTVTVSS VL: EIVLTQSPGTLSASPGERATMSCRASSSVSYMYWYQQKPGQAPRPWIYATSNLASGVPDRFSGSGSGTDYTLTISRVEPEDFAVYYCQQWSGNPRTFGGGTKLEIK | – | 126 pM
11 | A51 (antibody, human IgG1, V domains shown, human IgG1/kappa (pFuse vectors), culture supernatant) VH: QVQLVQSGAEVKKPGASVKVSCKASGFDIQDTYMHWVKQRPGQGLEWIGRIDPASGHTKYDPKFQVRATITTDTSTSTAYLELSSLRSEDTAVYYCARSGGLPDVWGQGTTVTVSS VL: EIVLTQSPGTLSASPGERATMSCRASSSVSYMYWYQQKPGQAPRPWIYATSNLASGVPDRFSGSGSGTDYTLTISRLEPEDFAVYYCQQWSGNPRTFGGGTKLEIK | – | < 50 pM

Other lines, results leading:

Row | Kd (human TL1A) | Kd [1] | Binder
12 | – | 91 pM | A55 (antibody, human IgG1, V domains shown, human IgG1/kappa (pFuse vectors), culture supernatant) VH: EVQLVQSGAEVKKPGASVKVSCKASGFDIQDTYMHWVKQRPGQGLEWIGRIDPASGHTKYDPKFQVRATITTDTSTSTAYLELSSLRSEDTAVYYCARSGGLPDVWGQGTTVTVSS VL: EIVLTQSPGTLSASPGERATMSCRASSSVSYMYWYQQKPGQAPRPWIYATSNLASGVPDRFSGSGSGTDYTLTISRVEPEDFAVYYCQQWSGNPRTFGGGTKLEIK
13 | – | 116 pM | A56 (antibody, human IgG1, V domains shown, human IgG1/kappa (pFuse vectors), culture supernatant) VH: QVQLVQSGAEVKKPGASVKVSCKASGFDIQDTYMHWVKQRPGQGLEWIGRIDPASGHTKYDPKFQVRATITTDTSTSTAYLELSSLRSEDTAVYYCARSGGLPDVWGQGTTVTVSS VL: EIVLTQSPGTLSASPGERATMSCRASSSVSYMYWYQQKPGQAPRPWIYATSNLASGIPDRFSGSGSGTDYTLTISRVEPEDFAVYYCQQWSGNPRTFGGGTKLEIK
14 | 94 pM | – | A156 (antibody, IgG1, V domains shown) VH: QVQLVQSGAEVKKPGASVKVSCKASGFDIQDTYMHWVRQAPGQGLEWMGRIEPASGHIKYDPKFQVRATMTRDTSTSTVYMELSSLRSEDTAVYYCARSGGLPDWWGQGTTVTVSS VL: EIVLTQSPGTLSLSPGERATLSCRASSSVSYMYWYQQKPGQAPRPWIYATSNLASGIPDRFSGSGSGTDFTLTISRLEPEDFAVYYCQQWEGNPRTFGGGTKLEIK
15 | 66 pM | – | A158 (antibody, IgG1, V domains shown) VH: QVQLVQSGAEVKKPGASVKVSCKASGFDIQDTYMHWVKQRPGQGLEWMGRIDPASGHTKYDPKFQVRVTITRDTSTSTVYMELSSLRSEDTAVYYCARSGGLPDVWGQGTTVTVSS VL: EIVLTQSPGTLSLSPGERATLSCRASSSVSYMYWYQQKPGQAPRLLIYATSNLASGIPDRFSGSGSGTDFTLTISRLEPEDFAVYYCQQWKGNPRTFGGGTKLEIK
16 | 69 pM | – | A159 (antibody, IgG1, V domains shown) VH: QVQLVQSGAEVKKPGASVKVSCKASGFDIQDTYMHWVKQRPGQGLEWMGRIDPASGHTKYDPKFQVRVTITRDTSTSTAYMELSSLRSEDTAVYYCARSGGLPDVWGQGTTVTVSS VL: EIVLTQSPGTLSLSPGERATLSCRASSSVSYMYWYQQKPGQAPRLLIYATSNLASGIPDRFSGSGSGTDFTLTISRLEPEDFAVYYCQQWKGNPRTFGGGTKLEIK
17 | 72 pM | – | A161 (antibody, IgG1, V domains shown) VH: QVQLVQSGAEVKKPGASVKVSCKASGFDIQDTYMHWVRQRPGQGLEWMGRIDPASGHTKYDPKFQVRVTITTDTSTSTVYLELSSLRSEDTAVYYCARSGGLPDVWGQGTTVTVSS VL: EIVLTQSPGTLSLSPGERATLSCRASSSVSYMYWYQQKPGQAPRLLIYATSNLASGIPDRFSGSGSGTDFTLTISRLEPEDFAVYYCQQWKGNPRTFGGGTKLEIK
18 | 94 pM | – | A160 (antibody, IgG1, V domains shown) VH: QVQLVQSGAEVKKPGASVKVSCKASGFDIQDTYMHWVKQRPGQGLEWMGRIDPASGHTKYDPKFQVRVTMTRDTSTSTAYLELSSLRSEDTAVYYCARSGGLPDVWGQGTTVTVSS VL: EIVLTQSPGTLSLSPGERATLSCRASSSVSYMYWYQQKPGQAPRLLIYATSNLASGIPDRFSGSGSGTDFTLTISRLEPEDFAVYYCQQWKGNPRTFGGGTKLEIK
19 | 51 pM | – | A163 (antibody, IgG1, V domains shown) VH: QVQLVQSGAEVKKPGASVKVSCKASGFDIQDTYMHWVRQRPGQGLEWMGRIDPASGHTKYDPKFQVRVTITTDTSTSTAYMELSSLRSEDTAVYYCARSGGLPDVWGQGTTVTVSS VL: EIVLTQSPGTLSLSPGERATLSCRASSSVSYMYWYQQKPGQAPRLLIYATSNLASGIPDRFSGSGSGTDFTLTISRLEPEDFAVYYCQQWKGNPRTFGGGTKLEIK
20 | 75 pM | – | A162 (antibody, IgG1, V domains shown) VH: QVQLVQSGAEVKKPGASVKVSCKASGFDIQDTYMHWVRQRPGQGLEWMGRIDPASGHTKYDPKFQVRVTITTDTSTSTVYMELSSLRSEDTAVYYCARSGGLPDVWGQGTTVTVSS VL: EIVLTQSPGTLSLSPGERATLSCRASSSVSYMYWYQQKPGQAPRLLIYATSNLASGIPDRFSGSGSGTDFTLTISRLEPEDFAVYYCQQWKGNPRTFGGGTKLEIK
21 | 69 pM | – | A157 (antibody, IgG1, V domains shown) VH: QVQLVQSGAEVKKPGASVKVSCKASGFDIQDTYMHWVKQRPGQGLEWMGRIDPASGHTKYDPKFQVRVTITRDTSTSTVYLELSSLRSEDTAVYYCARSGGLPDVWGQGTTVTVSS VL: EIVLTQSPGTLSLSPGERATLSCRASSSVSYMYWYQQKPGQAPRLLIYATSNLASGIPDRFSGSGSGTDFTLTISRLEPEDFAVYYCQQWKGNPRTFGGGTKLEIK
